Measured values reported in publication PMC4022651, “Substitutional Analysis of the C-Terminal Domain of AbrB Revealed Its Essential Role in DNA-Binding Activity”.
Each block holds one substance with its values, some of them ahead of it.

Columns and labels:
AbrB D62A (B. subtilis) = experiment: SEC; analytical gel filtration (FPLC) on Superdex 75 5/150 GL; running buffer condition I: 50 mM HEPES pH 7.5, 300 mM NaCl, 2 mM β-mercaptoethanol, no glycerol; 100 µl protein applied; 0.2 ml/min; polymeric forms as % of the areas under the curve of all protein peaks
AbrB E77A (B. subtilis) [1] = experiment: SEC; analytical gel filtration (FPLC) on Superdex 75 5/150 GL; running buffer condition II: 50 mM HEPES pH 7.5, 300 mM NaCl, 2 mM β-mercaptoethanol with 10% glycerol; 60 µl (100 µg) protein applied; 0.2 ml/min; polymeric forms as % of the areas under the curve of all protein peaks
AbrB E77A (B. subtilis) [2] = experiment: SEC; analytical gel filtration (FPLC) on Superdex 75 5/150 GL; running buffer condition I: 50 mM HEPES pH 7.5, 300 mM NaCl, 2 mM β-mercaptoethanol, no glycerol; 100 µl protein applied; 0.2 ml/min; polymeric forms as % of the areas under the curve of all protein peaks
AbrB E80A (B. subtilis) [3] = experiment: SEC; analytical gel filtration (FPLC) on Superdex 75 5/150 GL; running buffer condition II: 50 mM HEPES pH 7.5, 300 mM NaCl, 2 mM β-mercaptoethanol with 10% glycerol; 60 µl (100 µg) protein applied; 0.2 ml/min; polymeric forms as % of the areas under the curve of all protein peaks
AbrB E80A (B. subtilis) [4] = experiment: SEC; analytical gel filtration (FPLC) on Superdex 75 5/150 GL; running buffer condition I: 50 mM HEPES pH 7.5, 300 mM NaCl, 2 mM β-mercaptoethanol, no glycerol; 100 µl protein applied; 0.2 ml/min; polymeric forms as % of the areas under the curve of all protein peaks
AbrB E85A (B. subtilis) = experiment: as above
AbrB K71A (B. subtilis) [5] = experiment: SEC; analytical gel filtration (FPLC) on Superdex 75 5/150 GL; running buffer condition II: 50 mM HEPES pH 7.5, 300 mM NaCl, 2 mM β-mercaptoethanol with 10% glycerol; 60 µl (100 µg) protein applied; 0.2 ml/min; polymeric forms as % of the areas under the curve of all protein peaks
AbrB K71A (B. subtilis) [6] = experiment: SEC; analytical gel filtration (FPLC) on Superdex 75 5/150 GL; running buffer condition I: 50 mM HEPES pH 7.5, 300 mM NaCl, 2 mM β-mercaptoethanol, no glycerol; 100 µl protein applied; 0.2 ml/min; polymeric forms as % of the areas under the curve of all protein peaks
AbrB K76A (B. subtilis) = experiment: as above
AbrB K94A (B. subtilis) = experiment: as above
AbrB K94I (B. subtilis) [7] = experiment: SEC; analytical gel filtration (FPLC) on Superdex 75 5/150 GL; running buffer condition II: 50 mM HEPES pH 7.5, 300 mM NaCl, 2 mM β-mercaptoethanol with 10% glycerol; 60 µl (100 µg) protein applied; 0.2 ml/min; polymeric forms as % of the areas under the curve of all protein peaks
AbrB K94I (B. subtilis) [8] = experiment: SEC; analytical gel filtration (FPLC) on Superdex 75 5/150 GL; running buffer condition I: 50 mM HEPES pH 7.5, 300 mM NaCl, 2 mM β-mercaptoethanol, no glycerol; 100 µl protein applied; 0.2 ml/min; polymeric forms as % of the areas under the curve of all protein peaks
AbrB N88A (B. subtilis) = experiment: as above
AbrB N88D (B. subtilis) = experiment: as above
AbrB Q55A (B. subtilis) = experiment: as above
AbrB Q55E (B. subtilis) [9] = experiment: SEC; analytical gel filtration (FPLC) on Superdex 75 5/150 GL; running buffer condition II: 50 mM HEPES pH 7.5, 300 mM NaCl, 2 mM β-mercaptoethanol with 10% glycerol; 60 µl (100 µg) protein applied; 0.2 ml/min; polymeric forms as % of the areas under the curve of all protein peaks
AbrB Q55E (B. subtilis) [10] = experiment: SEC; analytical gel filtration (FPLC) on Superdex 75 5/150 GL; running buffer condition I: 50 mM HEPES pH 7.5, 300 mM NaCl, 2 mM β-mercaptoethanol, no glycerol; 100 µl protein applied; 0.2 ml/min; polymeric forms as % of the areas under the curve of all protein peaks
AbrB Q81A (B. subtilis) = experiment: as above
AbrB Q87A (B. subtilis) = experiment: as above
AbrB Q89A (B. subtilis) = experiment: as above
AbrBQ81E (B. subtilis) [11] = experiment: SEC; analytical gel filtration (FPLC) on Superdex 75 5/150 GL; running buffer condition II: 50 mM HEPES pH 7.5, 300 mM NaCl, 2 mM β-mercaptoethanol with 10% glycerol; 60 µl (100 µg) protein applied; 0.2 ml/min; polymeric forms as % of the areas under the curve of all protein peaks
AbrBQ81E (B. subtilis) [12] = experiment: SEC; analytical gel filtration (FPLC) on Superdex 75 5/150 GL; running buffer condition I: 50 mM HEPES pH 7.5, 300 mM NaCl, 2 mM β-mercaptoethanol, no glycerol; 100 µl protein applied; 0.2 ml/min; polymeric forms as % of the areas under the curve of all protein peaks
[13] = molecular target: AbrBQ81K, identical with the AbrB of B. amyloliquefaciens FZB45 (B. subtilis (with Q81K: B. amyloliquefaciens FZB45)); experiment: as above
AbrBR15A (B. subtilis) [14] = experiment: SEC; analytical gel filtration (FPLC) on Superdex 75 5/150 GL; running buffer condition II: 50 mM HEPES pH 7.5, 300 mM NaCl, 2 mM β-mercaptoethanol with 10% glycerol; 60 µl (100 µg) protein applied; 0.2 ml/min; polymeric forms as % of the areas under the curve of all protein peaks
AbrBR15A (B. subtilis) [15] = experiment: SEC; analytical gel filtration (FPLC) on Superdex 75 5/150 GL; running buffer condition I: 50 mM HEPES pH 7.5, 300 mM NaCl, 2 mM β-mercaptoethanol, no glycerol; 100 µl protein applied; 0.2 ml/min; polymeric forms as % of the areas under the curve of all protein peaks
[16] = molecular target: wild-type AbrB of B. subtilis 168 (His6-AbrB) (B. subtilis); experiment: SEC; analytical gel filtration (FPLC) on Superdex 75 5/150 GL; running buffer condition II: 50 mM HEPES pH 7.5, 300 mM NaCl, 2 mM β-mercaptoethanol with 10% glycerol; 60 µl (100 µg) protein applied; 0.2 ml/min; polymeric forms as % of the areas under the curve of all protein peaks
[17] = molecular target: wild-type AbrB of B. subtilis 168 (His6-AbrB) (B. subtilis); experiment: SEC; analytical gel filtration (FPLC) on Superdex 75 5/150 GL; running buffer condition I: 50 mM HEPES pH 7.5, 300 mM NaCl, 2 mM β-mercaptoethanol, no glycerol; 100 µl protein applied; 0.2 ml/min; polymeric forms as % of the areas under the curve of all protein peaks

Substance: AbrB E77A (natural protein)
- % of the protein (AUC) in the form with n 4.7 (AbrB E77A (B. subtilis) [1]): 94%
- % of the protein (AUC) in the form with n 55.5 (AbrB E77A (B. subtilis) [1]): 6%
- % of the protein (AUC) in the form with n 4.1 (AbrB E77A (B. subtilis) [2]): 83%
- % of the protein (AUC) in the form with n 8.2 (AbrB E77A (B. subtilis) [2]): 17%

Substance: AbrB E80A (natural protein)
- % of the protein (AUC) in the form with n 4.5 (AbrB E80A (B. subtilis) [3]): 90%
- % of the protein (AUC) in the form with n 56.3 (AbrB E80A (B. subtilis) [3]): 10%
- % of the protein (AUC) in the form with n 3.9 (AbrB E80A (B. subtilis) [4]): 78%
- % of the protein (AUC) in the form with n 8.2 (AbrB E80A (B. subtilis) [4]): 22%

Substance: AbrB K71A (natural protein)
- % of the protein (AUC) in the form with n 3.9 (AbrB K71A (B. subtilis) [5]): > 95%
- stoichiometry N (AbrB K71A (B. subtilis) [5]): 3.9
- % of the protein (AUC) in the form with n 4.3 (AbrB K71A (B. subtilis) [6]): 86%
- % of the protein (AUC) in the form with n 8.5 (AbrB K71A (B. subtilis) [6]): 14%

Substance: AbrB Q55E (natural protein)
- % of the protein (AUC) in the form with n 3.8 (AbrB Q55E (B. subtilis) [9]): > 95%
- stoichiometry N (AbrB Q55E (B. subtilis) [9]): 3.8
- % of the protein (AUC) in the form with n 4.3 (AbrB Q55E (B. subtilis) [10]): 49%
- % of the protein (AUC) in the form with n 12.3 (AbrB Q55E (B. subtilis) [10]): 51%

Substance: AbrB Q81A (natural protein)
- % of the protein (AUC) in the form with n 4.4 (AbrB Q81A (B. subtilis)): 94%
- % of the protein (AUC) in the form with n 8.5 (AbrB Q81A (B. subtilis)): 6%

Substance: AbrB Q89A (natural protein)
- % of the protein (AUC) in the form with n 4.8 (AbrB Q89A (B. subtilis)): 93%
- % of the protein (AUC) in the form with n 8.1 (AbrB Q89A (B. subtilis)): 7%

Substance: AbrBQ81E (natural protein)
- % of the protein (AUC) in the form with n 4.1 (AbrBQ81E (B. subtilis) [11]): > 95%
- stoichiometry N (AbrBQ81E (B. subtilis) [11]): 4.1
- % of the protein (AUC) in the form with n 3.9 (AbrBQ81E (B. subtilis) [12]): 78%
- % of the protein (AUC) in the form with n 8.1 (AbrBQ81E (B. subtilis) [12]): 22%

Substance: AbrBR15A (natural protein)
- % of the protein (AUC) in the form with n 40.4 (AbrBR15A (B. subtilis) [14]): 10%
- % of the protein (AUC) in the forms with 12< n >1 (AbrBR15A (B. subtilis) [14]): 90%
- % of the protein (AUC) in the form with n 4.1 (AbrBR15A (B. subtilis) [15]): 57.5%
- % of the protein (AUC) in the form with n 8.0 (AbrBR15A (B. subtilis) [15]): 42.5%

Further lines, results first:

- % of the protein (AUC) in the form with n 4.1 (AbrB D62A (B. subtilis)): 94%
- % of the protein (AUC) in the form with n 8.2 (AbrB D62A (B. subtilis)): 6%
Substance: AbrB D62A (natural protein)

- % of the protein (AUC) in the form with n 4.0 (AbrB E85A (B. subtilis)): 98%
- % of the protein (AUC) in the form with n 8.2 (AbrB E85A (B. subtilis)): 2%
Substance: AbrB E85A (natural protein)

- % of the protein (AUC) in the form with n 4.0 (AbrB K76A (B. subtilis)): > 95%
- stoichiometry N (AbrB K76A (B. subtilis)): 4
Substance: AbrB K76A (natural protein)

- % of the protein (AUC) in the form with n 4.1 (AbrB K94A (B. subtilis)): 93%
- % of the protein (AUC) in the form with n 8.2 (AbrB K94A (B. subtilis)): 7%
Substance: AbrB K94A (natural protein)

- % of the protein (AUC) in the form with n 4.1 (AbrB K94I (B. subtilis) [7]): > 95%
- stoichiometry N (AbrB K94I (B. subtilis) [7]): 4.1
- % of the protein (AUC) in the form with n 4.7 (AbrB K94I (B. subtilis) [8]): 65.6%
- % of the protein (AUC) in the form with n 13.6 (AbrB K94I (B. subtilis) [8]): 34.4%
- % of the protein in larger polymeric forms (AbrB K94I (B. subtilis) [8]): < 30%
Substance: AbrB K94I (natural protein)

- % of the protein (AUC) in the form with n 4.5 (AbrB N88A (B. subtilis)): 91%
- % of the protein (AUC) in the form with n 8.1 (AbrB N88A (B. subtilis)): 9%
Substance: AbrB N88A (natural protein)

- % of the protein (AUC) in the form with n 4.1 (AbrB N88D (B. subtilis)): 93%
- % of the protein (AUC) in the form with n 8.3 (AbrB N88D (B. subtilis)): 8%
Substance: AbrB N88D (natural protein)

- % of the protein (AUC) in the form with n 3.9 (AbrB Q55A (B. subtilis)): 92%
- % of the protein (AUC) in the form with n 8.1 (AbrB Q55A (B. subtilis)): 8%
Substance: AbrB Q55A (natural protein)

- % of the protein (AUC) in the form with n 4.5 (AbrB Q87A (B. subtilis)): 93%
- % of the protein (AUC) in the form with n 8.1 (AbrB Q87A (B. subtilis)): 7%
Substance: AbrB Q87A (natural protein)

- % of the protein (AUC) in the form with n 4.0 [13]: > 95%
- stoichiometry N [13]: 4
Substance: AbrBQ81K, identical with the AbrB of B. amyloliquefaciens FZB45 (natural protein)

- % of the protein (AUC) in the form with n 4.8 [16]: > 95%
- stoichiometry N [16]: 4.8
- % of the protein (AUC) in the form with n 4.1 [17]: 87%
- % of the protein (AUC) in the form with n 8.2 [17]: 13%
Substance: wild-type AbrB of B. subtilis 168 (His6-AbrB) (natural protein)
